Measured values from the supplement of paper PMC9170038.

Tested on: MS2 coat protein
Assay: apparent KD of MS2 coat protein; designed switch direction (-1 OFF switch, 1 ON switch): -1; higher = weaker reporter binding
Summary of the method: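 Designed RNA switches were transcribed on Illumina chips by stalled E. coli RNA polymerase and titrated with SNAP-549-labelled MS2 coat protein from 0.7 or 1.5 nM, doubling to 3 µM. Step length ran from 0.8–1.5 h at the lowest concentration to 10–20 min at the highest. The apparent KD is the median over clusters for each design, from curve-fitted normalised cluster fluorescence.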

[1] = input ligand: microRNA oligo, concentration not stated
[2] = Eterna round: R95, input ligand: microRNA oligo, concentration not stated
[3] = Eterna round: R95, input ligand: FMN 200 uM
[4] = Eterna round: R95, input ligand: none

Sequence | apparent KD of MS2 coat protein (input ligand: FMN 200 uM) [nM] | apparent KD of MS2 coat protein [1] [nM] | apparent KD of MS2 coat protein (input ligand: none) [nM] | apparent KD of MS2 coat protein [2] [nM] | apparent KD of MS2 coat protein [3] [nM] | apparent KD of MS2 coat protein [4] [nM]
GCGCACCUACCAAAAGGUAGGUCAACAUGAGGAUCACCCAUGUAGGAUAUCGAUUGCUUUGCAGUCGAGAAGGACGUGAUGCGC [JL ENG3 3.80 Mod 15] (Eterna round: R96, puzzle: Exclusion NG 3) | 38 | 24.5 | 34.3 |  |  | 
UGAGUGCUGCGAGGAUAUACAUGAGGAUCACCCAUGUAAACGUGUGAGGCUUUGCCUCACACGAUGUAGAAGGCGCAGUACUCU [JL ENG2 1.05] (Eterna round: R96, puzzle: Exclusion NG 2) | 18.4 | 9.25 | 14 |  |  | 
ACUAUCAGAUUCUUAGGGUACAUGAGGAUCACCCAUGUGUACGUCUACGAGGGUUCGAAAAUCAAGCUCCGCUCGUC [Eternabot (L2) Solution 19] (Eterna round: R97, puzzle: Sensor, turn-off variant 1) | 99.2 |  | 91.8 |  |  | 
CUAGAGUCAGGAUAUACGAGAUCGAAAGAUCGGCGAUCCCUACAUGAGGAUCACCCAUGUAGAAGGGACUCUAG [Mod 11 - Jieux - Exclusion 2] (Eterna round: R97, puzzle: Exclusion 2) | 28.3 |  | 13.8 |  |  | 
UUAAAUCAUGUAGGAUAUGCGUGGCGAAGCUAUGCAGAAGGACAUGAGGAUCACCCAUGUGCUUCCGUCUGAGUACAGACGGUA [Mat - Exclusion NG 1 - Mod of JL - D11] (Eterna round: R96, puzzle: Exclusion NG 1) | 221 | 106 | 101 |  |  | 
UUAUAUAAUGUGAGGAUAUGCUGGUCGAGAGAUCAGCAGAAGGCACAUGAGGAUCACCCAUGUAGUAAAUUUUA [Mat - Exclusion 4 - JL Mod - D14] (puzzle: Brourd's mod of Exclusion 4) |  |  |  | 19.8 |  | 
CUGAGCAGACGGAAAUCCAACAUGAGGAUCACCCAUGUCUCAAAAGCUUUUUGCUUGUCUUAUUCUCCUCUGUUCUC [Edtile] (puzzle: Sensor v3, turn-off variant 1) |  |  |  | 71.2 | 13.8 | 12.9
AGAUGGCGAGGAUAUACAUGAGGAUCACCCAUGUGAAGAAGAAUAGUGAGGAAGAAAAGUAGAAGGCGCUGUCA [Mat - Exclusion 3 - Mod of Salish D32] (puzzle: Exclusion 3) |  |  |  | 49.4 |  | 
AAAUUAACUUAGGAUAUCGGCUGAAACAGCGUACGAGAAGGAAGUACAUGAGGAUCACCCAUGUGUCCCGUGCU [Teentibi] (Eterna round: R97, puzzle: Exclusion 6) | 68.6 |  | 38.1 |  |  | 
UACAUGAGGAUCACCCAUGUUUUGUCGUGUAUGGUAUUUAUCUAGGAUAUCAUUUUAUUUAGCUAUGAGAAGGAGAAUAUUAAU [JMF's solution 94] (Eterna round: R96, puzzle: Exclusion NG 3) | 32.3 | 20.5 | 31.2 |  |  | 
AAAAUACAUGAGGAUCACCCAUGUGAGGAUAUGAGAGUCAACUCGAGAGAGUUGAUUCUCAGAAGGCACAUAAA [JR_Ex1_Sub066] (Eterna round: R97, puzzle: Exclusion 1) | 228 |  | 53.7 |  |  | 
UUCCAACGAGGAUAUCGAUGGUGGAACAUGAGGAUCACCCAUGUAUGAGAUAGUGUAGUUCGAGAAGGCGUUCAGU [JR_E5_Sub055] (puzzle: Exclusion 5) |  |  |  | 41.9 |  | 
CAUGGAACGUAGGAUAUCUCGCGGCUAGGCUGCAGAGAAGGACGCACAUGAGGAUCACCCAUGUGUGAUCCAAA [Tibiataus] (puzzle: Exclusion 6) |  |  |  | 17 | 27.6 | 21.9
CUUCUCAAAGGAUAUCACGGUAAUAACAUGAGGAUCACCCAUGUGCAAUUCGUGUCCCUGUGAGAAGGUUGAGAAG [Remaor] (Eterna round: R96, puzzle: Exclusion 5) | 19.5 | 11.1 | 13.2 |  |  | 
UCCUCACAUGAGGAUCACCCAUGUCAGGAUAUACAAGAAAAUAACCGGAAAGAACGGAGUAGAAGGGACAUAAG [Xeontiorer] (puzzle: Exclusion 1) |  |  |  | 15.6 | 27.4 | 15.5
UAUGUAUACGUCAGGAUAUACGGUCCAGAUGGUAAGUAGAAGGGACAUGAGGAUCACCCAUGUAUAAUAAUAAU [AK 1] (puzzle: Brourd's mod of Exclusion 4) |  |  |  | 18 | 20.2 | 22.5
UUACCUAGUGUUAGGAUAUGCGACGGGUGACCGUUGCAGAAGGAACAUGAGGAUCACCCAUGUUUAAUAAAAUC [JL-BMX4-4.45 ViennaUCT mod] (Eterna round: R97, puzzle: Brourd's mod of Exclusion 4) | 53.1 |  | 12.6 |  |  | 

Sequence | apparent KD of MS2 coat protein (input ligand: FMN 200 uM) [nM] | apparent KD of MS2 coat protein [1] [nM] | apparent KD of MS2 coat protein (input ligand: none) [nM] | apparent KD of MS2 coat protein [2] [nM] | apparent KD of MS2 coat protein [3] [nM] | apparent KD of MS2 coat protein [4] [nM]
AGCUGUGGCCGAGGAUAUGACAUGAGGAUCACCCAUGUACAUGAUUAGGCCUGGUAACAGGCUCGUCAGAAGGCGGUCUCAGCA [Eli eng2 - 009] (Eterna round: R96, puzzle: Exclusion NG 2) | 46.2 | 13.6 | 15.9 |  |  | 
GACCGGUAAGGAUAUGUAUCUUUCAGGACACUACCGAAGAUGCAGAAGGUACAUGAGGAUCACCCAUGUGGGCU [Eternabot (L1) Solution 36] (Eterna round: R97, puzzle: Exclusion 4) | 227 |  | 75.8 |  |  | 
AUCAGCUCGUGAGGAUAUACAUGAUAGAUCGAUUAAUUAAUUAAUUUAACAUGAGGAUCACCCAUGUAGAAGGUACGAGCUGAU [ENG2/1-C3] (Eterna round: R96, puzzle: Exclusion NG 2) |  | 39.6 |  |  |  | 
ACCGGUGUUGCGGAUAAGCUUUUCUGCUCGUUUUAUCGCACAUGAGGAUCACCCAUGUCAUCCGUCAGCAUGCAAAC [Usveen] (puzzle: Sensor v3, turn-off variant 2) |  |  |  | 38.8 | 22.6 | 25.1
UUCCCGCGCGUGAGGAUAUGCUGAUCCCAGGAUUAGCAGAAGGCACAUGAGGAUCACCCAUGUCCAACUUGUCU [LRO-BmodExc4-14- Bluer = mod of Colors by Tatyana Zabanova] (Eterna round: R97, puzzle: Brourd's mod of Exclusion 4) | 38.5 |  | 31.6 |  |  | 
AAGGACCGUGUAGGAUAUGCACUGAAUAGGUCAGGAGGGUUCUUACACAUGAGGAUCACCCAUGUGUAGAAGGACGGAAGGUCA [Eternabot solution 25] (Eterna round: R96, puzzle: Exclusion NG 2) | 12.7 | 11.4 | 15.2 |  |  | 
AUGAGGUUAGGAUAUACAUGAGGAUCACCCAUGUUGAAGGGUUAGGUAGGCGGAGCUGGUAGAAGGAACGGAGC [JR_Exclu3_Sub057] (Eterna round: R96, puzzle: Exclusion 3) | 44.3 | 31.9 | 55.3 |  |  | 
UUCCUGUCAGGAUAUGACUAGAUGCACGUUAGUGUGUUUACUUAGAAGGGACAUGAGGAUCACCCAUGUAUUCC [Bring Us a Shrubbery-15] (puzzle: Exclusion 4) |  |  |  | 25.1 |  | 
CAGCGUUCAGGAUAUACAUGAGGAUCACCCAUGUGUUCCAGCUAGGAAACUAGCAAAUGUAGAAGGGAACGCUG [Mat - Exclusion 3 - JL Mod - D1] (Eterna round: R97, puzzle: Exclusion 3) | 463 |  | 125 |  |  | 
ACCCAGUCAGGAUAUCCGGAGUUCCGCGAUGGCGGACGGUAGGAGAAGGGACAUGAGGAUCACCCAUGUAGAAA [EX4 B.17] (Eterna round: R97, puzzle: Exclusion 4) | 179 |  | 34.7 |  |  | 
AGCUGUGGCCGAGGAUAUCUGUUCCAUAAAACCGAAAUAUAAUCGGACAUGAGGAUCACCCAUGUAGAGAAGGCGGUCUCAGCA [Eli eng2 - 099] (Eterna round: R96, puzzle: Exclusion NG 2) |  | 18.3 |  |  |  | 
GUGCAACAUGAGGAUCACCCAUGUCAGGAUAUGCGAAUUUCAUCAAAAGAUGAAAUUUGCAGAAGGGACUGUAC [Omei Ex1 A20] (Eterna round: R97, puzzle: Exclusion 1) | 40.6 |  | 48.9 |  |  | 
UGAUUGUUUACCAGAUUAUACAUGAGGAUCACCCAUGUAGAUCCUACGUGCACGUUAUACCGCUCGUCUUAUUCCCA [Sensor-V1 #75] (Eterna round: R97, puzzle: Sensor, turn-off variant 1) | 44.6 |  | 41.2 |  |  | 
GAUGCUUCGGCAUCUACAAGCUUUUUGCUCGUCUUAUUAACAUGAGGAUCACCCAUGUUAAUGAGACCUCAUGUAUU [Sensor v3 - turn-off variant 2 - 7] (puzzle: Sensor v3, turn-off variant 2) |  |  |  | 14.9 | 13.5 | 11.1
AGAUUAAAAGUAAGGAUAUGCUUCCGGAAACGGAGGCAGAAGGUACAUGAGGAUCACCCAUGUUAAACUAAUUU [Explosion 5 - Jieux - Brourd's mod of Exclusion 4] (Eterna round: R97, puzzle: Brourd's mod of Exclusion 4) | 21.2 |  | 15.3 |  |  | 
CAGUACUGAGGAUAUACAUGAGGAUCACCCAUGUUUUCCAGCUAGGAUACUAGCAAGUGUAGAAGGCAGUACUG [Mat - Exclusion 3 - Eli Mod - D6] (Eterna round: R97, puzzle: Exclusion 3) | 273 |  | 24.5 |  |  | 
